# Experimental data taken from patent publication US20260207798A1, “CYCLIC PEPTIDES AS PET IMAGING AGENTS OF GRANZYME B” (priority 2022, published 2026).
# Numbered stars: 1 amine (or outer) side, 2 acyl side, 3 side chain; on linkers, the order of the positions; unused ones are H or OH. Bridge positions count the residues as written; N and C are the ends. Square brackets hold non-standard residues; d marks the D form. Peptide text beside a SMILES is read from it. I, II: the chains in the order shown. * marks the point of attachment. X3 = CC(C)(C)OC(=O)NCCC(=O)N(CCOCCOCCOCCOCCC(=O)[*:1])CCOCCOCCOCCOCCC(=O)[*:2]; NOTA‑1 = 1,4,7-triazacyclononane-N,N',N''-triacetic acid phenyl thiourea; Pro(cis-4-Ph) = O=C(O)[C@@H]1C[C@H](c2ccccc2)CN1; Peg4 = polyethylene glycol with 4 units (PEG4); Trp(5-F) = N[C@@H](Cc1c[nH]c2ccc(F)cc12)C(=O)O; Pro(trans-4-F) = O=C(O)[C@@H]1C[C@@H](F)CN1; Phe(4-F) = N[C@@H](Cc1ccc(F)cc1)C(=O)O; Phe(4-Me) = Cc1ccc(C[C@H](N)C(=O)O)cc1; Tic = O=C(O)[C@@H]1Cc2ccccc2CN1; Pip = O=C(O)[C@@H]1CCCCN1; Aze = O=C(O)[C@@H]1CCN1; Propionyl = CCC(=O)*
# B1: Compound 43a (peptide)
# peptide: {CH2CO}-[Phe(4-Me)]NFEDQSPDTWQPCG-NH2
# modifications: thioether N-14
# B2: Compound 54a (peptide)
# peptide: {CH2CO}-[Phe(4-F)]NFEDQSPDTWQPCG-NH2
# modifications: thioether N-14
# SMILES: C[C@@H](O)[C@@H]1NC(=O)[C@H](CC(=O)O)NC(=O)[C@@H]2CCCN2C(=O)[C@H](CO)NC(=O)[C@H](CCC(N)=O)NC(=O)[C@H](CC(=O)O)NC(=O)[C@H](CCC(=O)O)NC(=O)[C@H](Cc2ccccc2)NC(=O)[C@H](CC(N)=O)NC(=O)[C@H](Cc2ccc(F)cc2)NC(=O)CSC[C@@H](C(=O)NCC(N)=O)NC(=O)[C@@H]2CCCN2C(=O)[C@H](CCC(N)=O)NC(=O)[C@H](Cc2c[nH]c3ccccc23)NC1=O
# B3: Compound 13a (peptide)
# peptide: {CH2CO}-FNFEDQSPDTWQPCGGK(NOTA‑1)-NH2
# modifications: thioether N-14
# B4: Compound 50a (peptide)
# peptide: {CH2CO}-FNFEDQSPDTWQ[Pro(cis-4-Ph)]CG-NH2
# modifications: thioether N-14
# B5: Compound 76a (peptide)
# peptide: {CH2CO}-FNFEDQS[Pip]DTWQPCG-NH2
# modifications: thioether N-14
# B6: Compound 75a (peptide)
# peptide: {CH2CO}-FNFEDQS[Aze]DTWQPCG-NH2
# modifications: thioether N-14
# B7: Compound 47a (peptide)
# peptide: {CH2CO}-FNFEDQSPDT[Trp(5-F)]QPCG-NH2
# modifications: thioether N-14
# B8: Compound 71a (peptide)
# peptide: {CH2CO}-FNFEDQSPDTWQ[Pip]CG-NH2
# modifications: thioether N-14
# notes: also called 71aa
# B9: Compound 85a (peptide)
# peptide: {CH2CO}-FNFEDQSAITWQPCG-NH2
# modifications: thioether N-14
# SMILES: CC[C@H](C)[C@@H]1NC(=O)[C@H](C)NC(=O)[C@H](CO)NC(=O)[C@H](CCC(N)=O)NC(=O)[C@H](CC(=O)O)NC(=O)[C@H](CCC(=O)O)NC(=O)[C@H](Cc2ccccc2)NC(=O)[C@H](CC(N)=O)NC(=O)[C@H](Cc2ccccc2)NC(=O)CSC[C@@H](C(=O)NCC(N)=O)NC(=O)[C@@H]2CCCN2C(=O)[C@H](CCC(N)=O)NC(=O)[C@H](Cc2c[nH]c3ccccc23)NC(=O)[C@H]([C@@H](C)O)NC1=O
# B10: Compound 3a (peptide)
# peptide: {CH2CO}-FNFEDQSADTWQPCGGK(RESCA‑1)-NH2
# modifications: thioether N-14
# B11: Compound 16a (peptide)
# peptide: {CH2CO}-FNFEDQSADTWQPCGGK(Peg4)-NH2
# modifications: thioether N-14
# B12: Compound 4a (peptide)
# peptide: {CH2CO}-FNFEDQSADTWQPCGGK(Propionyl)-NH2
# modifications: thioether N-14
# B13: Compound 61a (peptide)
# peptide: {CH2CO}-FNFEDQAPDTWQPCGGK-NH2
# modifications: thioether N-14
# SMILES: C[C@@H]1NC(=O)[C@H](CCC(N)=O)NC(=O)[C@H](CC(=O)O)NC(=O)[C@H](CCC(=O)O)NC(=O)[C@H](Cc2ccccc2)NC(=O)[C@H](CC(N)=O)NC(=O)[C@H](Cc2ccccc2)NC(=O)CSC[C@@H](C(=O)NCC(=O)NCC(=O)N[C@@H](CCCCN)C(N)=O)NC(=O)[C@@H]2CCCN2C(=O)[C@H](CCC(N)=O)NC(=O)[C@H](Cc2c[nH]c3ccccc23)NC(=O)[C@H]([C@@H](C)O)NC(=O)[C@H](CC(=O)O)NC(=O)[C@@H]2CCCN2C1=O
# B14: Compound 26a (peptide)
# peptide: {CH2CO}-FNFEDQSADTWQPCGGK-NH2
# modifications: thioether N-14
# notes: also called 2b
# B15: Compound 9a (peptide)
# peptide: {CH2CO}-FNFEDQSADTWQPCGGK(AF647)-NH2
# modifications: thioether N-14
# B16: Compound 23a (peptide)
# peptide: {CH2CO}-FNFEDQSVDTWQPCGGK-NH2
# modifications: thioether N-14
# SMILES: CC(C)[C@@H]1NC(=O)[C@H](CO)NC(=O)[C@H](CCC(N)=O)NC(=O)[C@H](CC(=O)O)NC(=O)[C@H](CCC(=O)O)NC(=O)[C@H](Cc2ccccc2)NC(=O)[C@H](CC(N)=O)NC(=O)[C@H](Cc2ccccc2)NC(=O)CSC[C@@H](C(=O)NCC(=O)NCC(=O)N[C@@H](CCCCN)C(N)=O)NC(=O)[C@@H]2CCCN2C(=O)[C@H](CCC(N)=O)NC(=O)[C@H](Cc2c[nH]c3ccccc23)NC(=O)[C@H]([C@@H](C)O)NC(=O)[C@H](CC(=O)O)NC1=O
# B17: Compound 64a (peptide)
# peptide: {CH2CO}-FNFEDQS[Tic]DTWQPCG-NH2
# modifications: thioether N-14
# SMILES: C[C@@H](O)[C@@H]1NC(=O)[C@H](CC(=O)O)NC(=O)[C@@H]2Cc3ccccc3CN2C(=O)[C@H](CO)NC(=O)[C@H](CCC(N)=O)NC(=O)[C@H](CC(=O)O)NC(=O)[C@H](CCC(=O)O)NC(=O)[C@H](Cc2ccccc2)NC(=O)[C@H](CC(N)=O)NC(=O)[C@H](Cc2ccccc2)NC(=O)CSC[C@@H](C(=O)NCC(N)=O)NC(=O)[C@@H]2CCCN2C(=O)[C@H](CCC(N)=O)NC(=O)[C@H](Cc2c[nH]c3ccccc23)NC1=O
# B18: Compound 49a (peptide)
# peptide: {CH2CO}-FNFEDQSPDTWQ[Pro(trans-4-F)]CG-NH2
# modifications: thioether N-14
# Biological target: T1, human Granzyme B (human, UniProt P10144 21-247)
# T1 construct: Captured on a Series S Streptavidin chip for SPR; also called hGranzyme B; GzmB
# T1 sequence (P10144 21-247 limits assumed): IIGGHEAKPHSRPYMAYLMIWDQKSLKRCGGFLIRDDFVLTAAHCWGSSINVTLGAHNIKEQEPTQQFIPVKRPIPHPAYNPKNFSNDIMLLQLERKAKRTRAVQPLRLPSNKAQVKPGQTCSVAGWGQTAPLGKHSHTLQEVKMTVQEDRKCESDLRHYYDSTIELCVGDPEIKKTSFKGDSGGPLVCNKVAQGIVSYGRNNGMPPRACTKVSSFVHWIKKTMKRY
# Test: SPR, Biacore 8k+, hGranzyme B captured on SA chip, single cycle kinetics, 1:1 model
# Conditions: not given
row,Molecule,Kd [nM]
1,B1,3.1
2,B2,4.9
3,B3,4.4
4,B4,4.6
5,B5,28.6
6,B6,28.3
7,B7,4.1
8,B8,19.6
9,B9,58.3
10,B10,15.1
11,B11,19
12,B12,11.7
13,B13,6.3
14,B14,15.4
15,B15,13
16,B16,27.5
17,B17,8.1
18,B18,4.5

# Biological target: human Granzyme B (hGranzyme B) (Homo sapiens, UniProt P10144)
# Test: Surface plasmon resonance (SPR) binding kinetics to hGranzyme B
# Conditions: 25° C., 1:1 binding model, KD=kd/ka; read-out: Granzyme B SPR Kd
# Procedure: The kinetics of test peptide binding to human Granzyme B (hGranzyme B) was determined by SPR. All experiments were performed at 25° C. using the Biacore 8k+ instrument (Cytiva, Marlborough, MA). The Biacore 8k+ Insight Evaluation Software Version 3.0 was used to fit the data with a 1:1 binding model to determine the association rate constant ka (M^−1s^−1, where “M” ~equals molar and “s” ~equals seconds) and the dissociation rate constant kd (s^−1). These rate constants were used to calculate the equilibrium dissociation constant. KD (M)=kd/ka.
# To measure the binding kinetics of peptides of interest, surfaces were prepared by a capture method to a Series S Streptavidin (SA) chip using a 1×HBS-EP+ running buffer (Cytiva). hGranzyme B was diluted to 10 μg/mL in IX HBS-EP+ and flowed over spot 2 of each flow cell on the chip at a flow rate of 10 ul/min for 20 s to achieve a level of capture of ~1100 RU. An unmodified spot 1 of each flow cell was used as a matrix binding control or reference surface. Binding kinetics were measured using single cycle kinetics at 25° C. by injecting 5 concentrations with 3-fold serial dilutions of test peptides from 0.01 μM to 1 μM. Compound dilutions were performed manually in a running buffer containing 1×HBS-EP+(Cytiva), and a final concentration of 2% DMSO. The interaction analyses over hGranzyme B, were performed using a 120 s association time and a 900 s dissociation time. All experiments were conducted at a flow rate of 50 μL/min with a data collection rate of 10 Hz.
# Peptide dilution series included 2 zero concentration points (no compound) which were averaged and subtracted from the peptide concentration injection as DMSO control responses. Binding data acquired from the reference surface (matrix binding control) were subtracted from the binding data for hGranzyme B surface on the chip to determine specific binding. Next, the association phase data were solvent corrected to account for any signal fluctuation throughout the experiment due to subtle DMSO concentration differences. Corrected response data were analyzed using the Biacore 8k+ Evaluation Software Version 3.0 according to the manufacturer. SPR data for representative compounds of the disclosure are found in Table 8.
row,Molecule,Kd [nM]
1,"C[C@@H]1NC(=O)[C@H](CO)NC(=O)[C@H](CCC(N)=O)NC(=O)[C@H](CC(=O)O)NC(=O)[C@H](CCC(=O)O)NC(=O)[C@H](Cc2ccccc2)NC(=O)[C@H](CC(N)=O)NC(=O)[C@H](Cc2ccccc2)NC(=O)CSC[C@@H](C(=O)NCC(=O)NCC(=O)N[C@@H](CCCCNC(=O)CCOCCOCCOCCOCCN(CCOCCOCCOCCOCCC(=O)NCCCC[C@H](NC(=O)CNC(=O)CNC(=O)[C@@H]2CSCC(=O)N[C@@H](Cc3ccccc3)C(=O)N[C@@H](CC(N)=O)C(=O)N[C@@H](Cc3ccccc3)C(=O)N[C@@H](CCC(=O)O)C(=O)N[C@@H](CC(=O)O)C(=O)N[C@@H](CCC(N)=O)C(=O)N[C@@H](CO)C(=O)N[C@@H](C)C(=O)N[C@@H](CC(=O)O)C(=O)N[C@@H]([C@@H](C)O)C(=O)N[C@@H](Cc3c[nH]c4ccccc34)C(=O)N[C@@H](CCC(N)=O)C(=O)N3CCC[C@H]3C(=O)N2)C(N)=O)C(=O)CCNC(=O)OC(C)(C)C)C(N)=O)NC(=O)[C@@H]2CCCN2C(=O)[C@H](CCC(N)=O)NC(=O)[C@H](Cc2c[nH]c3ccccc23)NC(=O)[C@H]([C@@H](C)O)NC(=O)[C@H](CC(=O)O)NC1=O [Compound 7a, (*F.N.F.E.D.Q.S.A.D.T.W.Q.P.*C.G.G.K.NH2)-bis(PEG4)-β-Ala(Boc)-(*F.N.F.E.D.Q.S.A.D.T.W.Q.P.*C.G.G.K.NH2)] (I: {CH2CO}-FNFEDQSADTWQPCGGK-NH2 / II: {CH2CO}-FNFEDQSADTWQPCGGK-NH2; linker I:17-II:17 via X3; thioether I:N-I:14, II:N-II:14)",< 0.1
